Reference: article PMC5757174, “Biophysical characterization of Atg11, a scaffold protein essential for selective autophagy in yeast” (FEBS Open Bio, 2017)
Values joined by “and” are separate entries in the source; they are usually repeats but may differ in a detail not shown here. Equal entries are not always repeated.

B1: C-terminal region of Atg11 (residues 700-1178) (domain or fragment, S. cerevisiae, UniProt Q12527 700-1178, looked up)
chain: NHQIQELESNVDDLLHQLQLLKEENNRKSMQISEMGKKISDLEVEKTAYRETLTNLNQELARLTNEEQSHRTEIFTLNASFKKQLNDIISQDNEKIEKLTGDYDDVSKSRERLQMDLDESNKKHEQEVNLLKADIERLGKQIVTSEKSYAETNSSSMEKGEKFETIPLAEDPGRENQISAYTQTLQDRIFDIISTNIFILENIGLLLTFDNNNNIQIRRVKGLKKGTAQSNILDESTQMLDAHDNSLIKSPVFQKLKDEYELIKSVANGSEKDTQQSIFLGNITQLYDNKLYEVAVIRRFKDIETLAKKLTKENKIKRTLLERFQREKVTLRNFQIGDLALFLPTRENVNSVGSMSSSTSSLSSSFSSVDLSTPPPLDAMSIQSSPSVIHSNVINQASISGRDKNKLMRPWAAFTAFEESTRYFLKDEKGLTKGKEWFVGRIVTLEHFVADSPSNNPFRLPKGSVWFQVTAVVVSYQGV
notes: Atg11, Saccharomyces cerevisiae, residues 700-1178 (55 kDa); Expressed from a modified pMAL-c2E vector as an MBP fusion with an HRV3C site; MBP was cleaved off; A few residues of the site may remain; also called Atg11_C; source: E. coli BL21(DE3), purified (Amylose, HRV3C cleavage, SP-Sepharose, Superdex 200)
B2: full-length S. cerevisiae Atg11 (residues 1-1178) (natural protein, UniProt Q12527 1-1178, looked up)
chain: MADADEYSTAPTQQEITPLQTTATIINAISGECITTNVDFFVSLDKFKQFIARKWKIPPDQLLILLPYGNKLKPSMFKELLINRSFTLNDFYVYDRRLFSLVSKPTPTNLLTSKDSNPMNSPNSNDLTETLEYLIKNSHISQYQGSDTIMIKPMPSPLEDADVDLSRLNYHSVTSLLTTNLGWLSALEIDVHYFKSLIPDIIAHIKRIFDGLTVCSQYLKLYCFDVESLYNSNVQFLNQLVDNGMTSKWEKCFNDTLSKLTALEGDSLQKFINIESLLENEKSVKILNHSINGKLNKIKREIDENASFRDIITVNIDRLRQMFTPNESKFELEDQMAESFEVLVSEMRTRSRNVLDKEEEEFNSQEFLKSMNVMLEKDKKESVKTLFTISQALYSQIGELIDLKKSLQKHAVAILGNIAFTQMEILGIKRLLLNECNKDLELYKKYEVEFAQVEDLPLIYGLYLIEKYRRLSWFQQILSFISNFNQDLELFKQNELRTRNKWVKNFGSIATVFCEDLLSSSDFKRLNEYHSHTSPPNEDEEDENENSIANYRQDLVKVSQAIDNYMTQIKETDVSEPIIDLLSKTLFETKRFHIIYSNFKNNNNNSSNGNSISPEGSIALKSDDVVKGYKTRIKKLESLLHEFQYSDIGHWPQGVLNTHLKPFRGSATSINKKKFLGASVLLEPANISEVNIDSVSQANNHQIQELESNVDDLLHQLQLLKEENNRKSMQISEMGKKISDLEVEKTAYRETLTNLNQELARLTNEEQSHRTEIFTLNASFKKQLNDIISQDNEKIEKLTGDYDDVSKSRERLQMDLDESNKKHEQEVNLLKADIERLGKQIVTSEKSYAETNSSSMEKGEKFETIPLAEDPGRENQISAYTQTLQDRIFDIISTNIFILENIGLLLTFDNNNNIQIRRVKGLKKGTAQSNILDESTQMLDAHDNSLIKSPVFQKLKDEYELIKSVANGSEKDTQQSIFLGNITQLYDNKLYEVAVIRRFKDIETLAKKLTKENKIKRTLLERFQREKVTLRNFQIGDLALFLPTRENVNSVGSMSSSTSSLSSSFSSVDLSTPPPLDAMSIQSSPSVIHSNVINQASISGRDKNKLMRPWAAFTAFEESTRYFLKDEKGLTKGKEWFVGRIVTLEHFVADSPSNNPFRLPKGSVWFQVTAVVVSYQGV
notes: Atg11, Saccharomyces cerevisiae, residues 1-1178 (1178 amino acids, 135 kDa); C terminus carried an HRV3C protease site followed by FLAG and 6x His tags; Residues of the HRV3C site may remain at the C terminus; also called full-length Atg11; source: High Five insect cells, baculovirus expression system, purified (Talon, HiTrap Q, HRV3C cleavage, Superose6 Increase); not shown: FLAG, C-terminal, …
B3: N-terminal region of Atg11 (residues 1-646) (protein)
chain: MADADEYSTAPTQQEITPLQTTATIINAISGECITTNVDFFVSLDKFKQFIARKWKIPPDQLLILLPYGNKLKPSMFKELLINRSFTLNDFYVYDRRLFSLVSKPTPTNLLTSKDSNPMNSPNSNDLTETLEYLIKNSHISQYQGSDTIMIKPMPSPLEDADVDLSRLNYHSVTSLLTTNLGWLSALEIDVHYFKSLIPDIIAHIKRIFDGLTVCSQYLKLYCFDVESLYNSNVQFLNQLVDNGMTSKWEKCFNDTLSKLTALEGDSLQKFINIESLLENEKSVKILNHSINGKLNKIKREIDENASFRDIITVNIDRLRQMFTPNESKFELEDQMAESFEVLVSEMRTRSRNVLDKEEEEFNSQEFLKSMNVMLEKDKKESVKTLFTISQALYSQIGELIDLKKSLQKHAVAILGNIAFTQMEILGIKRLLLNECNKDLELYKKYEVEFAQVEDLPLIYGLYLIEKYRRLSWFQQILSFISNFNQDLELFKQNELRTRNKWVKNFGSIATVFCEDLLSSSDFKRLNEYHSHTSPPNEDEEDENENSIANYRQDLVKVSQAIDNYMTQIKETDVSEPIIDLLSKTLFETKRFHIIYSNFKNNNNNSSNGNSISPEGSIALKSDDVVKGYKTRIKKLESLLHEFQYS

Tests used:
Q12527 [1] = test: SEC; Superdex 200 Increase 10/300 GL, 20 mM Tris pH 8.0, 150 mM NaCl; mass estimated from globular standards
[2] = molecular target: the molecule itself; test: AUC; sedimentation velocity, 36 000 r.p.m., 20 °C; Atg11_N at 0.61 mg/mL and Atg11_C at 0.92 mg/mL in 20 mM Tris pH 8.0, 150 mM NaCl; c(s) by SEDFIT
Q12527 [3] = test: SEC; Superose 6 Increase 10/300 GL, 20 mM Tris pH 8.0, 300 mM NaCl, 1 mM DTT; mass estimated from globular standards
[4] = molecular target: the molecule itself; test: AUC; sedimentation velocity, 42 000 r.p.m., 20 °C; full-length Atg11 at 0.65 mg/mL in 20 mM Tris pH 8.0, 300 mM NaCl, 1 mM DTT; c(s) by SEDFIT

Row | Protein | copies from the apparent SEC mass (globular standards) (Q12527 [1]) | stoichiometry N [2] | copies from the apparent SEC mass (globular standards) (Q12527 [3]) | stoichiometry N [4]
1 | B1 | 6 and 7–8 copies of each protein, respectively | 2.1 copies |  | 
2 | B2 |  |  | 8–9 copies of Atg11 | 1.6 copies
3 | B3 | 6 and 7–8 copies of each protein, respectively |  |  | 
